# Test results published in patent publication US20040230039A1 (YEDA RESEARCH AND DEVELOPMENT, published 2004).
# Changes are numbered by the printed parent chain. Names and notes keep the numbering of the source.
# T1: Acetyl-Asp-Glu-Val-Asp-a-(4-Methyl-Coumaryl-7-Amide)
# T1 sequence: DEVD
# T2: Acetyl-Tyr-Val-Ala-Asp-AMC
# T2 sequence: YVAD
# T3: FLAG-MORT-1 (UniProt Q13158 1-208)
# T3 construct: Expressed and 35S-labeled in HeLa cells; yielded proteins of about 27, 28, 32 and 34 kD; also called MORT-1-FLAG fusion protein; not shown: FLAG octapeptide (Eastman Kodak), N-terminal
# T3 sequence (looked up): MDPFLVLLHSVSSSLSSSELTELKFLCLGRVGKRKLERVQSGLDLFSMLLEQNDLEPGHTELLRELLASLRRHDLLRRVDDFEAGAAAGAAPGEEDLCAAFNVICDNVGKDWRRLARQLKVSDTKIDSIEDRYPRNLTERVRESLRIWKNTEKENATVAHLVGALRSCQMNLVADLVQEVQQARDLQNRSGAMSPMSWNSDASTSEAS
# T4: TRADD (human, UniProt Q15628 1-312, limits assumed)
# T4 construct: Gal4 hybrid in yeast
# T4 sequence (looked up): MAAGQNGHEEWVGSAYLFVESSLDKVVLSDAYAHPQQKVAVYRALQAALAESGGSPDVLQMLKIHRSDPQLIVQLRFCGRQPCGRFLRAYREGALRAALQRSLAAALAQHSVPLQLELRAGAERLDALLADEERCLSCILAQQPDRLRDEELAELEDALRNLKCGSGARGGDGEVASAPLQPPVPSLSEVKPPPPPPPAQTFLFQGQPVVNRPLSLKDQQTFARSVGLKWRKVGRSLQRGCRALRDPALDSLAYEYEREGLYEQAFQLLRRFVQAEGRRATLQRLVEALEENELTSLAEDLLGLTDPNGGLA
# T5: MORT-1 (FADD), human, full-length (human), Q13158
# T5 chain: T3 sequence (looked up)
# B1: GST-huFas-IC (receptor, human, UniProt P25445 191-335, looked up)
# chain: KRKEVQKTCRKHRKENQGSHESPTLNPETVAINLSDVDLSKYITTIAGVMTLSQVKGFVRKNGVNEAKIDEIKNDNVQDTAEQKVQLLRNWHQLHGKKEAYDTLIKDLKKANLCTLAEKIQTIILKDITSDSENSNFRNEIQSLV
# notes: domain: intracellular domain; Produced in E. coli, attached to glutathione beads; also called GST fusion with the human Fas-IC; GST-Fas-IC; not shown: glutathione S-transferase (GST) fusion partner
# B2: mouse Fas-IC (receptor, UniProt P25446 187-327, looked up)
# chain: RKYRKRKCWKRRQDDPESRTSSRETIPMNASNLSLSKYIPRIAEDMTIQEAKKFARENNIKEGKIDEIMHDSIQDTAEQKVQLLLCWYQSHGKSDAYQDLIKGLKKAECRRTLDKFQDMVQKDLGKSTPDTGNENEGQCLE
# notes: domain: intracellular domain
# B3: mouse Fas-IC I225N (receptor, UniProt P25446 187-327, looked up)
# chain: B2 chain with I60N
# notes: domain: intracellular domain; The text says 'Ile to Leu' but labels the mutant I225N; Position as printed; may count on the mature receptor; also called lprcg mutation
# B4: GST-mFas-IC (receptor, mouse, UniProt P25446 187-327, looked up)
# chain: B2 chain
# notes: domain: intracellular domain; Produced in E. coli, attached to glutathione beads; also called GST fusion with the mouse Fas-IC; not shown: glutathione S-transferase (GST) fusion partner
# B5: mouse Fas-IC I225A (receptor, UniProt P25446 187-327, looked up)
# chain: B2 chain with I60A
# notes: domain: intracellular domain; Position as printed; may count on the mature receptor
# B6: MORT-1 (FADD), human, full-length (other, UniProt Q13158 1-208, looked up)
# chain: T3 sequence (looked up)
# notes: Gal4 hybrid in yeast; also expressed in mammalian cells; also called HF1
# B7: MORT-1 fragment residues 130-245 (MORT-1 DD) (other, human, UniProt Q13158 82-197, looked up)
# chain: FEAGAAAGAAPGEEDLCAAFNVICDNVGKDWRRLARQLKVSDTKIDSIEDRYPRNLTERVRESLRIWKNTEKENATVAHLVGALRSCQMNLVADLVQEVQQARDLQNRSGAMSPMS
# notes: Gal4 hybrid in yeast; expressed in HeLa cells for the cytotoxicity test; also called MORT 'tail'
# B8: human p55-IC (intracellular domain of human p55 TNF receptor, residues 206-426) (receptor, UniProt P19438 235-455, looked up)
# chain: RYQRWKSKLYSIVCGKSTPEKEGELEGTTTKPLAPNPSFSPTPGFTPTLGFSPVPSSTFTSSSTYTPGDCPNFAAPRREVAPPYQGADPILATALASDPIPNPLQKWEDSAHKPQSLDTDDPATLYAVVENVPPLRWKEFVRRLGLSDHEIDRLELQNGRCLREAQYSMLATWRRRTPRREATLELLGRVLRDMDLLGCLEDIEEALCGPAALPPAPSLLR
# notes: range 206-426; Gal4 hybrid in yeast; Numbering as printed; may count on the mature receptor; also called 206-426 p55; intracellular domain of human p55-R (CD120a)
# B9: MACHβ1 (ORF-B of MACH) (other, human, UniProt Q14790-5 1-235, looked up)
# chain: MDFSRNLYDIGEQLDSEDLASLKFLSLDYIPQRKQEPIKDALMLFQRLQEKRMLEESNLSFLKELLFRINRLDLLITYLNTRKEEMERELQTPGRAQISAYRVMLYQISEEVSRSELRSFKFLLQEEISKCKLDDDMNLLDIFIEMEKRVILGEGKLDILKRVCAQINKSLLKIINDYEEFSKERSSSLEGSPDEFSNDFGQSLPNEKQTSGILSDHQQSQFCKSTGESAQTSQH
# notes: Gal4 hybrid in yeast; also expressed in mammalian cells (34 kDa); also called MACH B; MACH ORF-B
# B10: MACHα1 (C360S) (enzyme)
# chain: MDFSRNLYDIGEQLDSEDLASLKFLSLDYIPQRKQEPIKDALMLFQRLQEKRMLEESNLSFLKELLFRINRLDLLITYLNTRKEEMERELQTPGRAQISAYRVMLYQISEEVSRSELRSFKFLLQEEISKCKLDDDMNLLDIFIEMEKRVILGEGKLDILKRVCAQINKSLLKIINDYEEFSKERSSSLEGSPDEFSNGEELCGVMTISDSPREQDSESQTLDKVYQMKSKPRGYCLIINNHNFAKAREKVPKLHSIRDRNGTHLDAGALTTTFEELHFEIKPHDDCTVEQIYEILKIYQLMDHSNMDCFICCILSHGDKGIIYGTDGQEAPIYELTSQFTGLKCPSLAGKPKVFFIQASQGDNYQKGIPVETDSEEQPYLEMDLSSPQTRYIPDEADFLLGMATVNNCVSYRNPAEGTWYIQSLCQSLRERCPRGDDILTILTEVNYEVSNKDDKKNMGKQMPQPTFTLRKKLVFPSD
# notes: Gal4 hybrid in yeast; also called MACHα(C360S)
# Tests used:
# [1] = tested on: T1, Acetyl-Asp-Glu-Val-Asp-a-(4-Methyl-Coumaryl-7-Amide)
# [2] = tested on: T2, Acetyl-Tyr-Val-Ala-Asp-AMC
# [3] = target: T3, FLAG-MORT-1; test: in vitro binding of 35S-labeled FLAG-MORT-1 from HeLa extracts to GST fusion on glutathione beads, SDS-PAGE and autoradiography
# Procedure: Glutathione S-transferase (GST) fusions with the wild type or a mutated Fas-IC were produced and adsorbed to glutathione-agarose beads; see Boldin et al., 1995; Current Protocols in Molecular Biology, 1994; Frangioni and Neel, 1993). […] The extracts were prepared in a buffer containing 50 mM Tris-HCl, pH 7.5, 150 mM NaCl, 0.1% NP-40, 1 mM dithiotreitol, 1 mM EDTA, 1 mM phenylmethylsulfonyl fluoride, 20 μg/ml Aprotonin, 20 μg/ml Leupeptin, 10 mM sodium fluoride and 0.1 mM sodium vanadate (1 ml per 5×10⁵ cells).
# [4] = target: B6; test: yeast two-hybrid beta-galactosidase test
# Procedure: (§1) The interaction of the proteins encoded by the Gal4 DNA binding domain and activation-domain constructs (pGBT9 and PGAD-GH) within transfected SFY526 yeasts was assessed by β-galactosidase expression filter assay. […] The intracellular domains of human p55 TNF receptor (p55-IC residues 206-426), human CD40 (CD40-IC, residues 216-277) and human p75 TNF receptor (p75-IC, residues 287-461) as well as lamin, cyclin D and “empty” Gal4 (pGBT9) vectors served as negative controls in the form of DNA-binding domain constructs. SNF-1 and SNF4 served as positive controls in the form of DNA-binding-domain (SNF1) and activation-domain (SNF4) constructs. “Empty” Gal4 vectors (pGAD-GH) also served as negative controls in the form of activation domain constructs. The symbols “++” and “+” used in the presentation of the results of the above analysis denote the development of strong color within 30 and 90 min of the assay, respectively; and “−” denotes no development of color within 24 h.
# [5] = target: T4, TRADD; test: yeast two-hybrid screen of a human B cell library with MORT-1 as bait
# [6] = target: T5, MORT-1 (FADD), human, full-length …; test: yeast two-hybrid beta-galactosidase filter assay; activation-domain hybrid against DNA-binding-domain hybrid (row); +++ = strong color within 30 min; conditions: remark: other sources report otherwise
# [7] = target: B8; test: yeast two-hybrid beta-galactosidase test
# Procedure: as §1
# [8] = target: B9; test: yeast two-hybrid beta-galactosidase filter assay
# Procedure: (§2) Their interaction was assessed by a β-galactosidase expression filter assay as described in Boldin et al., (1995b). The results are presented in terms of the time required for the development of strong color. […] Except where otherwise indicated, all experimental procedures for the findings presented are as described above (see also Boldin et al., 1995).
# [9] = target: B10; test: yeast two-hybrid beta-galactosidase filter assay
# Procedure: as §2
# [10] = target: T6, MACHα1 (human, UniProt Q14790 1-479); test: yeast two-hybrid beta-galactosidase filter assay
# T6 construct: also called CASP-8α1
# Procedure: as §2
# [11] = target: B10; test: yeast two-hybrid test
# Text: (§3) Except where otherwise indicated, all experimental procedures for the findings presented are as described above (see also Boldin et al., 1995).
# [12] = target: T6, MACHα1; test: yeast two-hybrid test
# Text: as §3
# [13] = target: the molecule itself; test: yeast two-hybrid beta-galactosidase filter assay; activation-domain hybrid against DNA-binding-domain hybrid (row); + = strong color within 90 min
# Procedure: The DNA-binding domain constructs were prepared in pGBT9 vectors and the activation domain constructs were prepared in pGAD-GM vectors. […] In the assay, the development of color was determined, where the greater the color development, the greater the interaction between the constructs encoded by the DNA-binding domain and activation domain.
# [14] = target: the molecule itself; test: yeast two-hybrid test
# Text: as §3
molecule,measurement,setting,value
GST fusion of the CED3/ICE homology region of MACHα1 (Ser217 through the C-terminus),cleavage of fluorogenic peptide substrate (AMC release) by bacterial lysates,[1],cleaved effectively the PARP sequence-derived fluorogenic substrate
same,cleavage of fluorogenic peptide substrate (AMC release) by bacterial lysates,[2],"They had no measurable proteolytic activity, though, against the IL-1β-precursor sequence-derived fluorogenic substrate"
GST fusion of MACHα1 Asp374 through the C-terminus,cleavage of fluorogenic peptide substrate (AMC release) by bacterial lysates,[1],Nor did cleavage occur
GST fusion of the full-length MACHα1,cleavage of fluorogenic peptide substrate (AMC release) by bacterial lysates,[1],did not cleave Ac-DEVD-AMC
GST-fused MACH CED3/ICE-homology region with Cys360 replaced by Ser,cleavage of fluorogenic peptide substrate (AMC release) by bacterial lysates,[1],No cleavage was observed
GST fusion of MACHα1 Ser217 till Asp374,cleavage of fluorogenic peptide substrate (AMC release) by bacterial lysates,[1],Nor did cleavage occur
B1,binding result,[3],binds
B2,binding result,[4],binds
B3,binding result,[4],no binding
B4,binding result,[3],binds
B5,binding result,[4],no binding
B6,binding result,[5],binds
same,"time to development of strong color (beta-galactosidase filter assay, yeast two-hybrid)",[6],< 30 min
same,binding result,[7],no binding
B7,binding result,[4],no binding
B8,binding result,[8],no binding
same,binding result,[9],no binding
same,binding result,[10],no binding
B9,binding result,[11],binds
same,binding result,[12],binds
same,binding result,[13],binds
B10,binding result,[14],binds
